Measurements published in US20140241984A1 (UNITED ARAB EMIRATES UNIVERSITY, published 2014).
Where a chain is given by its changes, count along the chain named.

T1: IAPP fibrils (UniProt P10997 34-70)
T1 construct: Amyloid fibrils of IAPP spotted in the dot blot; also called islet amyloid polypeptide
T1 peptide (looked up): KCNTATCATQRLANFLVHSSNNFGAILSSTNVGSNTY

T2: IAPP monomers (UniProt P10997 34-70)
T2 peptide (looked up): T1 peptide (looked up)

T3: fibrils of NAC (61-78) (human)
T3 construct: also called NAC (61-78) (F)
T3 peptide: EQVTNVGGAVVTGVTAVA

T4: α-synuclein peptide 1 (1-14) (human)
T4 construct: also called Peptide No. 1
T4 peptide: MDVFMKGLSKAKEG

T5: α-synuclein peptide 2 (8-21) (human)
T5 construct: also called Peptide No. 2
T5 peptide: LSKAKEGVVAAAEK

T6: α-synuclein peptide 3 (15-28) (human)
T6 construct: also called Peptide No. 3
T6 peptide: VVAAAEKTKQGVAE

T7: α-synuclein peptide 6 (36-49) (human)
T7 construct: also called Peptide No. 6
T7 peptide: GVLYVGSKTKEGVV

T8: α-synuclein peptide 7 (43-56) (human)
T8 construct: also called Peptide No. 7
T8 peptide: KTKEGVVHGVATVA

T9: α-synuclein peptide 8 (50-63) (human)
T9 construct: also called Peptide No. 8
T9 peptide: HGVATVAEKTKEQV

T10: α-synuclein peptide 9 (57-70) (human)
T10 construct: also called Peptide No. 9
T10 peptide: EKTKEQVTNVGGAV

T11: α-synuclein peptide 10 (64-77) (human)
T11 construct: also called Peptide No. 10
T11 peptide: TNVGGAVVTGVTAV

T12: α-synuclein peptide 11 (71-84) (human)
T12 construct: also called Peptide No. 11
T12 peptide: VTGVTAVAQKTVEG

T13: α-synuclein peptide 12 (78-91) (human)
T13 construct: also called Peptide No. 12
T13 peptide: AQKTVEGAGSIAAA

T14: α-synuclein peptide 13 (85-98) (human)
T14 construct: also called Peptide No. 13
T14 peptide: AGSIAAATGFVKKD

T15: α-synuclein peptide 14 (92-105) (human)
T15 construct: also called Peptide No. 14
T15 peptide: TGFVKKDQLGKNEE

T16: α-synuclein peptide 15 (99-112) (human)
T16 construct: also called Peptide No. 15
T16 peptide: QLGKNEEGAPQEGI

T17: α-synuclein peptide 16 (106-119) (human)
T17 construct: also called Peptide No. 16
T17 peptide: GAPQEGILEDMPVD

T18: α-synuclein peptide 17 (113-126) (human)
T18 construct: also called Peptide No. 17
T18 peptide: LEDMPVDPDNEAYE

T19: α-synuclein peptide 18 (120-133) (human)
T19 construct: also called Peptide No. 18
T19 peptide: PDNEAYEMPSEEGY

B1: Syn-F1 (antibody, V domains shown)
VH: DVQLVESGGDLVQPGGSRKLSCAASGFTFSSFGMHWVRQAPEKGLEWVAYINSGSSTIYYADTVKGRFTISRDNPKNTLFLQMTSLRSEDTAMYYCARGNNPGTGYYYSMDYWGQGTSVTVSS
VL: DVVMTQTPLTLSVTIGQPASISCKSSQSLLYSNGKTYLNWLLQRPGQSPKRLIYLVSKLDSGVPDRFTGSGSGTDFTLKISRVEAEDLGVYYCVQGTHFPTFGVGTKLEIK
notes: also called mAb Syn-F1
B2: Syn-F2 (antibody, IgG2a, V domains shown)
VH: B1 VH with D10G, N52S, S109A
VL: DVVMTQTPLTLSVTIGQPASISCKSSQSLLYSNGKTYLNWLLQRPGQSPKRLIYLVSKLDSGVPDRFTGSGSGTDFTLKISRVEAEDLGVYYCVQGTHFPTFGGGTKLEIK
notes: also called mAb Syn-F2
B3: Syn-O1 (antibody, IgG2b, V domains shown)
VH: EVQLVESGGGLVQPKGSLKLSCAASGFTFNTYAMHWVRQAPGKGLEWVARIRSKSSNYATYYADSVKDRFTISRDDSQSMLYLQMNNLKTEDTAMYYCVRPLKWYFDVWGTGTTVTVSS
VL: QIVLTQSPAILSASPGEKVTMTCSASSTVNYMHWYQQKSGTSPKIWIYDTSKLASGVPARFSGSGSWTSYSLTISSMEAEDAATYYCQQWNSNPPTFGAGTKLELK
notes: also called mAb Syn-O1

target: T20, A-beta fibrils (UniProt P05067 672-713, limits assumed); assay: dot blot
T20 construct: Amyloid fibrils of A-beta spotted in the dot blot; also called β-amyloid
Method: (§1) The membranes were blocked with 5% skimmed milk in PBST (PBS containing 0.05% Tween) and incubated for 1 h at room temperature. […] The membranes were washed and incubated with either 1/20000 diluted goat anti-mouse IgG-HRP (Jackson ImmunoResearch) or 1/10000 diluted goat anti-rabbit IgG-HRP (Jackson Immunoresearch) for 1 h at room temperature. The blots were then developed with Super signal West Pico chemiluminescent substrate.
(§2) C) To test the cross reactivity of our conformational monoclonal antibodies to different fragments of α-synuclein. […] The membranes were washed before incubating with either 1/20000 diluted goat anti-mouse IgG-HRP conjugate (Jackson Immunoresearch) or 1/300000 diluted chicken anti-goat IgG-HRP conjugate (Santa Cruz Biotechnology) for 1 h at room temperature. The blots were then developed with Super signal West Pico chemiluminescent substrate.

Binder | binding result
B1 | no binding (tested: 50 ng/ml antibody, 50 ng spotted)
B2 | no binding (tested: 50 ng/ml antibody, 50 ng spotted)
B3 | no binding (tested: 50 ng/ml antibody, 50 ng spotted)

target: T21, A-beta monomers (UniProt P05067 672-713, limits assumed); assay: dot blot
T21 construct: also called β-amyloid monomers
Method: as §1, §2

Binder | binding result
B1 | no binding (tested: 50 ng/ml antibody, 50 ng spotted)
B2 | no binding (tested: 50 ng/ml antibody, 50 ng spotted)
B3 | no binding (tested: 50 ng/ml antibody, 50 ng spotted)

Target: T1, IAPP fibrils
Assay: dot blot
Method: as §1, §2

Binder | binding result
B1 | no binding (tested: 50 ng/ml antibody, 50 ng spotted)
B2 | no binding (tested: 50 ng/ml antibody, 50 ng spotted)
B3 | no binding (tested: 50 ng/ml antibody, 50 ng spotted)

Target: T2, IAPP monomers
Assay: dot blot
Method: as §1, §2

Binder | binding result
B1 | no binding (tested: 50 ng/ml antibody, 50 ng spotted)
B2 | no binding (tested: 50 ng/ml antibody, 50 ng spotted)
B3 | no binding (tested: 50 ng/ml antibody, 50 ng spotted)

target: β-synuclein fibrils (UniProt Q16143 1-134); assay: dot blot
Sequence (Q16143 whole entry): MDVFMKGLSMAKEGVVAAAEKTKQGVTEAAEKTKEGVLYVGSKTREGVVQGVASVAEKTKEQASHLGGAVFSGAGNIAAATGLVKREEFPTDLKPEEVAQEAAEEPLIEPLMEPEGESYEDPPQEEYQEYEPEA
Method: as §1, §2

Binder | binding result
B1 | no binding (tested: 50 ng spotted)
B2 | no binding (tested: 50 ng spotted)
B3 | no binding (tested: 50 ng spotted)

target: β-synuclein monomers (UniProt Q16143 1-134); assay: dot blot
Sequence (Q16143 whole entry): as above
Method: as §1, §2

Binder | binding result
B1 | no binding (tested: 50 ng spotted)
B2 | no binding (tested: 50 ng spotted)
B3 | no binding (tested: 50 ng spotted)

target: γ-synuclein fibrils (UniProt O76070 1-127); assay: dot blot
Sequence (O76070 whole entry): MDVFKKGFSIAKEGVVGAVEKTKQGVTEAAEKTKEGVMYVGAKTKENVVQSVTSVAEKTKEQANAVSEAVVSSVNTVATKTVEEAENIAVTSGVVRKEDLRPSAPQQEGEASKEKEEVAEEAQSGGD
Method: as §1, §2

Binder | binding result
B1 | no binding (tested: 50 ng spotted)
B2 | no binding (tested: 50 ng spotted)
B3 | no binding (tested: 50 ng spotted)

target: γ-synuclein monomers (UniProt O76070 1-127); assay: dot blot
Sequence (O76070 whole entry): as above
Method: as §1, §2

Binder | binding result
B1 | no binding (tested: 50 ng spotted)
B2 | no binding (tested: 50 ng spotted)
B3 | no binding (tested: 50 ng spotted)

target: T22, fibrils of NAC (61-95) (human); assay: dot blot
T22 construct: also called NAC region (61-95) (F)
Method: as §1, §2

Binder | binding result
B1 | no binding (tested: 50 ng spotted)
B2 | no binding (tested: 50 ng spotted)
B3 | no binding (tested: 50 ng spotted)

Target: T3, fibrils of NAC (61-78)
Assay: dot blot
Method: as §1, §2

Binder | binding result
B1 | no binding (tested: 50 ng spotted)
B2 | no binding (tested: 50 ng spotted)
B3 | no binding (tested: 50 ng spotted)

Target: T4, α-synuclein peptide 1 (1-14)
Assay: pepscan ELISA
Method: (§3) To confirm the pepscan results using dot blot the mAbs were also tested by Pepscan using ELISA. […] The plate was washed with PBST and 50 μl of substrate (SuperSignal ELISA Femto Maximum Sensitivity Substrate, Thermo Scientific) was added and immediately read the plate using Victor X3 microtiter plate reader. After the ELISA signals were measured, the plate was also exposed onto X-ray film to develop the spots.

Binder | binding result
B1 | no binding (tested: 100 ng/ml antibody, 500 ng/well peptide)
B2 | no binding (tested: 100 ng/ml antibody, 500 ng/well peptide)
B3 | no binding (tested: 100 ng/ml antibody, 500 ng/well peptide)

Target: T5, α-synuclein peptide 2 (8-21)
Assay: pepscan ELISA
Method: as §3

Binder | binding result
B1 | no binding (tested: 100 ng/ml antibody, 500 ng/well peptide)
B2 | no binding (tested: 100 ng/ml antibody, 500 ng/well peptide)
B3 | no binding (tested: 100 ng/ml antibody, 500 ng/well peptide)

Target: T6, α-synuclein peptide 3 (15-28)
Assay: pepscan ELISA
Method: as §3

Binder | binding result
B1 | no binding (tested: 100 ng/ml antibody, 500 ng/well peptide)
B2 | no binding (tested: 100 ng/ml antibody, 500 ng/well peptide)
B3 | no binding (tested: 100 ng/ml antibody, 500 ng/well peptide)

Target: T7, α-synuclein peptide 6 (36-49)
Assay: pepscan ELISA
Method: as §3

Binder | binding result
B1 | no binding (tested: 100 ng/ml antibody, 500 ng/well peptide)
B2 | no binding (tested: 100 ng/ml antibody, 500 ng/well peptide)
B3 | no binding (tested: 100 ng/ml antibody, 500 ng/well peptide)

Target: T8, α-synuclein peptide 7 (43-56)
Assay: pepscan ELISA
Method: as §3

Binder | binding result
B1 | no binding (tested: 100 ng/ml antibody, 500 ng/well peptide)
B2 | no binding (tested: 100 ng/ml antibody, 500 ng/well peptide)
B3 | no binding (tested: 100 ng/ml antibody, 500 ng/well peptide)

Target: T9, α-synuclein peptide 8 (50-63)
Assay: pepscan ELISA
Method: as §3

Binder | binding result
B1 | no binding (tested: 100 ng/ml antibody, 500 ng/well peptide)
B2 | no binding (tested: 100 ng/ml antibody, 500 ng/well peptide)
B3 | no binding (tested: 100 ng/ml antibody, 500 ng/well peptide)

Target: T10, α-synuclein peptide 9 (57-70)
Assay: pepscan ELISA
Method: as §3

Binder | binding result
B1 | no binding (tested: 100 ng/ml antibody, 500 ng/well peptide)
B2 | no binding (tested: 100 ng/ml antibody, 500 ng/well peptide)
B3 | no binding (tested: 100 ng/ml antibody, 500 ng/well peptide)

Target: T11, α-synuclein peptide 10 (64-77)
Assay: pepscan ELISA
Method: as §3

Binder | binding result
B1 | no binding (tested: 100 ng/ml antibody, 500 ng/well peptide)
B2 | no binding (tested: 100 ng/ml antibody, 500 ng/well peptide)
B3 | no binding (tested: 100 ng/ml antibody, 500 ng/well peptide)

Target: T12, α-synuclein peptide 11 (71-84)
Assay: pepscan ELISA
Method: as §3

Binder | binding result
B1 | no binding (tested: 100 ng/ml antibody, 500 ng/well peptide)
B2 | no binding (tested: 100 ng/ml antibody, 500 ng/well peptide)
B3 | no binding (tested: 100 ng/ml antibody, 500 ng/well peptide)

Target: T13, α-synuclein peptide 12 (78-91)
Assay: pepscan ELISA
Method: as §3

Binder | binding result
B1 | no binding (tested: 100 ng/ml antibody, 500 ng/well peptide)
B2 | no binding (tested: 100 ng/ml antibody, 500 ng/well peptide)
B3 | no binding (tested: 100 ng/ml antibody, 500 ng/well peptide)

Target: T14, α-synuclein peptide 13 (85-98)
Assay: pepscan ELISA
Method: as §3

Binder | binding result
B1 | no binding (tested: 100 ng/ml antibody, 500 ng/well peptide)
B2 | no binding (tested: 100 ng/ml antibody, 500 ng/well peptide)
B3 | no binding (tested: 100 ng/ml antibody, 500 ng/well peptide)

Target: T15, α-synuclein peptide 14 (92-105)
Assay: pepscan ELISA
Method: as §3

Binder | binding result
B1 | no binding (tested: 100 ng/ml antibody, 500 ng/well peptide)
B2 | no binding (tested: 100 ng/ml antibody, 500 ng/well peptide)
B3 | no binding (tested: 100 ng/ml antibody, 500 ng/well peptide)

Target: T16, α-synuclein peptide 15 (99-112)
Assay: pepscan ELISA
Method: as §3

Binder | binding result
B1 | no binding (tested: 100 ng/ml antibody, 500 ng/well peptide)
B2 | no binding (tested: 100 ng/ml antibody, 500 ng/well peptide)
B3 | no binding (tested: 100 ng/ml antibody, 500 ng/well peptide)

Target: T17, α-synuclein peptide 16 (106-119)
Assay: pepscan ELISA
Method: as §3

Binder | binding result
B1 | no binding (tested: 100 ng/ml antibody, 500 ng/well peptide)
B2 | no binding (tested: 100 ng/ml antibody, 500 ng/well peptide)
B3 | no binding (tested: 100 ng/ml antibody, 500 ng/well peptide)

Target: T18, α-synuclein peptide 17 (113-126)
Assay: pepscan ELISA
Method: as §3

Binder | binding result
B1 | no binding (tested: 100 ng/ml antibody, 500 ng/well peptide)
B2 | no binding (tested: 100 ng/ml antibody, 500 ng/well peptide)
B3 | no binding (tested: 100 ng/ml antibody, 500 ng/well peptide)

Target: T19, α-synuclein peptide 18 (120-133)
Assay: pepscan ELISA
Method: as §3

Binder | binding result
B1 | no binding (tested: 100 ng/ml antibody, 500 ng/well peptide)
B2 | no binding (tested: 100 ng/ml antibody, 500 ng/well peptide)
B3 | no binding (tested: 100 ng/ml antibody, 500 ng/well peptide)
